Data as given in publication doi:10.1101/2023.11.08.566319.

Target: T33-51 protein cage subunit B
Assay: native MS; SEC-purified co-expressed cage, 2 uM in 200 mM ammonium acetate pH 7.4; Q Exactive UHMR
Conditions: scale: copies of A with 12 copies of B in the cage

In the case of “T33-51 protein cage subunit A (designed binder)”, the stoichiometry N was 11.
